In patent US20070185311A1 (EPIX MEDICAL INC A DELAWARE, published 2007) one finds Kd data, which are given here for 34 molecules.

Starred links: 1 amine or outer side, 2 acyl side, 3 side chain; linkers in the order of their positions; H or OH if unused. Positions of bridges follow the written chain, without caps; N, C: chain ends. Non-standard residues stand in square brackets, D forms with d. Primed or numbered codes have the meaning given here. No end group written: not given here. Tyr(3-NO2) = N[C@@H](Cc1ccc(O)c([N+](=O)[O-])c1)C(=O)O; Phe(4-OMe) = COc1ccc(C[C@H](N[*:1])C(=O)[*:2])cc1; Phe(3-CF3) = N[C@@H](Cc1cccc(C(F)(F)F)c1)C(=O)O; Phe(4-CF3) = N[C@@H](Cc1ccc(C(F)(F)F)cc1)C(=O)O; Bpa = N[C@@H](Cc1ccc(C(=O)c2ccccc2)cc1)C(=O)O; Phe(4-CH2NH2) = NCc1ccc(C[C@H](N)C(=O)O)cc1; Tyr(3-Cl) = N[C@@H](Cc1ccc(O)c(Cl)c1)C(=O)O; Bip = N[C@@H](Cc1ccc(-c2ccccc2)cc1)C(=O)O; Tyr(3-I) = N[C@@H](Cc1ccc(O)c(I)c1)C(=O)O; Phe(3-OMe) = COc1cccc(C[C@H](N)C(=O)O)c1; Phe(4-Br) = N[C@@H](Cc1ccc(Br)cc1)C(=O)O; Phe(4-CN) = N#Cc1ccc(C[C@H](N)C(=O)O)cc1; Phe(4-NH2) = Nc1ccc(C[C@H](N)C(=O)O)cc1; Phe(2-OMe) = COc1ccccc1C[C@H](N)C(=O)O; Phe(3-Me) = Cc1cccc(C[C@H](N)C(=O)O)c1; Phe(4-I) = N[C@@H](Cc1ccc(I)cc1)C(=O)O; Phe(4-Me) = Cc1ccc(C[C@H](N)C(=O)O)cc1; Hyp = O=C(O)[C@@H]1C[C@@H](O)CN1; hPhe = N[C@@H](CCc1ccccc1)C(=O)O; 3Pal = N[C@@H](Cc1cccnc1)C(=O)O; Phe(4-Et)′ = not defined here; Tle = CC(C)(C)[C@H](N)C(=O)O; Tyr(2-F)′ = not defined here; Nle = CCCC[C@H](N)C(=O)O; nTyr = not defined here

The target of this assay is DD(E) fragment of fibrin. Briefly: affinity to DD(E) fragment of fibrin.

For orientation: Kd means the equilibrium constant for the complex coming apart. A lower Kd goes with higher affinity. As for [Phe(4-CH2NH2)]HC[Hyp][Tyr(3-I)]DLCHI (disulfide 3-8 (inferred)) [F(4-CH2NH2)-H-C-Hyp-Y(3-I)-D-L-C-H-I], the Kd is < 100 nM.
In the case of FHC[Hyp][Tyr(3-I)]DLCH[Phe(3-OMe)] (disulfide 3-8 (inferred)) [F-H-C-Hyp-Y(3-I)-D-L-C-H-F(3-OMe)], the Kd is < 100 nM.
Turning to [Tyr(3-NO2)]HC[Hyp][Tyr(3-I)]DLCHI (disulfide 3-8 (inferred)) [Y(3-NO2)-H-C-Hyp-Y(3-I)-D-L-C-H-I], the Kd was < 100 nM.
With FHC[Hyp][Tyr(3-I)]DLCH[Phe(3-CF3)] (disulfide 3-8 (inferred)) [F-H-C-Hyp-Y(3-I)-D-L-C-H-F(3-CF3)], the Kd was < 100 nM.
To WEC[Hyp][Tyr(3-Cl)]GLCWIQ (disulfide 3-8 (inferred)) [W-E-C-Hyp-Y(3-Cl)-G-L-C-W-I-Q] belongs < 100 nM.
As to FHC[Hyp][Tyr(3-I)]DLCH[Phe(4-CF3)] (disulfide 3-8 (inferred)) [F-H-C-Hyp-Y(3-I)-D-L-C-H-F(4-CF3)], the Kd was < 100 nM.
Next, [nTyr]HC[Hyp][Tyr(3-I)]DLCHI (disulfide 3-8 (inferred); reading uncertain) [nTyr-H-C-Hyp-Y(3-I)-D-L-C-H-I]: < 100 nM; FHC[Hyp][Tyr(3-I)]DLCH[Phe(4-Et)′] (disulfide 3-8 (inferred)) [F-H-C-Hyp-Y(3-I)-D-L-C-H-F(4-Et)]: < 100 nM; FHC[Hyp][Tyr(3-I)]DLCH[Nle] (disulfide 3-8 (inferred); not fully specified) [F-H-C-Hyp-Y(3-I)-D-L-C-H-Nle]: < 100 nM.
Next, [Phe(34-F2)]HC[Hyp][Tyr(3-I)]DLCHI (disulfide 3-8 (inferred)) [F(34-F2)-H-C-Hyp-Y(3-I)-D-L-C-H-I]: < 100 nM; [Tyr(2-F)′]HC[Hyp][Tyr(3-I)]DLCHI (disulfide 3-8 (inferred)) [Y(2-F)-H-C-Hyp-Y(3-I)-D-L-C-H-I]: < 100 nM.
As to [Phe(4-I)]HC[Hyp][Tyr(3-I)]DLCHI (disulfide 3-8 (inferred)) [F(4-I)-H-C-Hyp-Y(3-I)-D-L-C-H-I], the dissociation constant Kd is < 100 nM.
To FHC[Hyp][Tyr(3-I)]DLCH[Bpa] (disulfide 3-8 (inferred)) [F-H-C-Hyp-Y(3-I)-D-L-C-H-Bpa] belongs < 100 nM; to [Phe(4-Br)]HC[Hyp][Tyr(3-I)]DLCHI (disulfide 3-8 (inferred)) [F(4-Br)-H-C-Hyp-Y(3-I)-D-L-C-H-I], < 100 nM; to FHC[Hyp][Tyr(3-I)]DLCH[Tle] (disulfide 3-8 (inferred)) [F-H-C-Hyp-Y(3-I)-D-L-C-H-Tle], < 100 nM.
Regarding FHC[Hyp][Tyr(3-I)]DLCH[hPhe] (disulfide 3-8 (inferred)) [F-H-C-Hyp-Y(3-I)-D-L-C-H-Hfe], the Kd was < 100 nM.
Next, FHC[Hyp][Tyr(3-Cl)]DLCHIL (disulfide 3-8 (inferred)) [F-H-C-Hyp-Y(3-Cl)-D-L-C-H-I-L]: < 100 nM; [hPhe]HC[Hyp][Tyr(3-I)]DLCHI (disulfide 3-8 (inferred)) [Hfe-H-C-Hyp-Y(3-I)-D-L-C-H-I]: < 100 nM; [Phe(3-CF3)]HC[Hyp][Tyr(3-I)]DLCHI (disulfide 3-8 (inferred)) [F(3-CF3)-H-C-Hyp-Y(3-I)-D-L-C-H-I]: < 100 nM.
FHC[Hyp][Tyr(3-I)]DLCHI (disulfide 3-8 (inferred)) [F-H-C-Hyp-Y(3-I)-D-L-C-H-I]: the Kd was < 100 nM.
Next, [Phe(4-CF3)]HC[Hyp][Tyr(3-I)]DLCHI (disulfide 3-8 (inferred)) [F(4-CF3)-H-C-Hyp-Y(3-I)-D-L-C-H-I]: < 100 nM.
In the case of [Phe(4-Me)]HC[Hyp][Tyr(3-I)]DLCHI (disulfide 3-8 (inferred)) [F(4-Me)-H-C-Hyp-Y(3-I)-D-L-C-H-I], the Kd is < 100 nM.
To [Phe(4-NH2)]HC[Hyp][Tyr(3-I)]DLCHI (disulfide 3-8 (inferred)) [F(4-NH2)-H-C-Hyp-Y(3-I)-D-L-C-H-I] belongs < 100 nM.
As to [Phe(2-OMe)]HC[Hyp][Tyr(3-I)]DLCHI (disulfide 3-8 (inferred)) [F(2-OMe)-H-C-Hyp-Y(3-I)-D-L-C-H-I], the Kd is < 100 nM.
To FHC[Hyp][Tyr(3-I)]DLC[3Pal]I (disulfide 3-8 (inferred)) [F-H-C-Hyp-Y(3-I)-D-L-C-3Pal-I] belongs < 100 nM; to FHC[Hyp][Tyr(3-I)]DLCH[Bip] (disulfide 3-8 (inferred)) [F-H-C-Hyp-Y(3-I)-D-L-C-H-Bip], < 100 nM; to [Phe(4-OMe)][His(Bzl)]C[Hyp][Tyr(3-I)]DLCHI (disulfide 3-8 (inferred)) [F(4-OMe)-H(Bzl)-C-Hyp-Y(3-I)-D-L-C-H-I], < 100 nM.
Next, [Phe(3-OMe)]HC[Hyp][Tyr(3-I)]DLCHI (disulfide 3-8 (inferred)) [F(3-OMe)-H-C-Hyp-Y(3-I)-D-L-C-H-I]: < 100 nM.
Next, [Phe(4-OMe)][His(Bzl)]C[Hyp][Tyr(3-Cl)]DLCHI (disulfide 3-8 (inferred)) [F(4-OMe)-H(Bzl)-C-Hyp-Y(3-Cl)-D-L-C-H-I]: < 100 nM; [Phe(4-OMe)]HC[Hyp][Tyr(3-I)]DLCH[Bpa] (disulfide 3-8 (inferred)) [F(4-OMe)-H-C-Hyp-Y(3-I)-D-L-C-H-Bpa]: < 100 nM; [DopaMe2]HC[Hyp][Tyr(3-I)]DLCHI (disulfide 3-8 (inferred)) [DopaMe2-H-C-Hyp-Y(3-I)-D-L-C-H-I]: < 100 nM.
[Phe(3-Me)]HC[Hyp][Tyr(3-I)]DLCHI (disulfide 3-8 (inferred)) [F(3-Me)-H-C-Hyp-Y(3-I)-D-L-C-H-I]: the Kd is < 100 nM.
For the molecule FHC[Hyp][Tyr(3-I)]DLCH[Phe(4-OMe)] (disulfide 3-8 (inferred)) [F-H-C-Hyp-Y(3-I)-D-L-C-H-F(4-OMe)], the Kd is < 100 nM.
Next, [Phe(4-CN)]HC[Hyp][Tyr(3-I)]DLCHI (disulfide 3-8 (inferred)) [F(4-CN)-H-C-Hyp-Y(3-I)-D-L-C-H-I]: < 100 nM.
